# Assay: soluble fraction after stress (log2 fold change); higher = more stays soluble; pooled small domains, quantitative proteomics
# Conditions: stress: pH 4
# How it was run: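 With high-throughput quantitative proteomics, pooled custom libraries of small protein domains were measured after pH 4 stress. Each domain's soluble amount after the stress gives a fold change taken as aggregation propensity. Higher log2 values mean more of the domain stayed soluble.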
row,Sequence,soluble fraction (log2)
1,HMKTRYPNVYQDEKGKFFYQIFIGTDTNGRKKLKKGRRDALGHPFSSAYQASKEAKRVQALYANVS,-0.0451
2,HMGTRIQAVMEDIQSRIAARTYLPGTRLPSVRAQAQAMQVSVSTVVEAYERLAAEGVIASRPGSGFYVAGP,≥ 0.43
3,HMGTPKMPLSLYLSMVENLRSLKRFALVNQQVKDGFVFFNDVAGIKRLQELLNYHNTGEKPSE,-0.287
4,HMEQPAPSTTVDILGGGRAALVTANRELGLALADDEIDYLTDSFTQLGRNPVDVELMMFAQA,-0.224
5,HMTSLYDILGIAKTADSQTIKTAFKKKALLYHPDKNNGNLKKEEIFKKISTAYQILSDPKSRANYDLSIA,0.22
6,HMGSATAPDLKGLTYEQAQTKAEDAGYNIEKGEDVYDNDVEKGKVASQDPEAGAEAKEGSVITVNISK,0.168
7,HMNVDSLIGKKARVLEDIDNLNAKGQVSIDGMEWTARSEDGSEIKKDALVEVVAIEGVKAIVKQ,-0.127
8,HMRTSIWTAIAHSLRSDIGSGVYGPDDKLPTESALAARFGVNRHTVRHAIKALTDEGLVLPRRGAGVFVTS,-0.207
9,HMDTIGSKVLAFLAGNLLDPTPFNYRFGYLYLNRTSKVIVEETDTYIDSGMRMTQEAVAEIMQKFAQ,-2.74
10,HMDSVSAVRTTHLNSYVLLLEKDGMAAATISRYIASMKGFFEYLFREHMIEEDPAFTLKPPKV,0.0461
11,HMKNTYTVVSGDTLWGIASRKLGGGSNWTKIYDANAATIESVANRRRGGRGSDHGHWIYPGTVLTI,0.216
12,HMRLREETRKVDKTGLIQVDGRHYRVPDEYSQKDVQILMDDNSIMVYRKGDFVIELDKETSVYMPH,-1.02
13,HMSAEDQRRASQEAAYRFMQVMAGNEAGFEDAARALFAGDNHRFEVLIQSWPDDVRDHVSLLSVDAFA,-1.78
14,HMNSLTVPDITNRTLAEASQVLLDMGLTPIPDAVAKDGVGDDVVYAQSPPPNVGAREGDVVTITYNPA,0.093
15,HMRSEILNLLREKSPQPVSGQDLANHFGITRTAVWKHIQSLKKMGYGIEAYTKKGYVLVSVPN,0.175
16,HMSKPLEVFKLTSEPFGFSFNTALGRSYTVEATGDLGVWKAVELFQGSGGEIRFTAKPTSSGGAQFFRVFV,-0.225
17,HMLAKRYLVYGSGSLNSAYPDTKNIAYGIDSGKGFFLVGILTENEASKLKLKGYYVIEDFPLDFH,-0.921
18,HMKFPPASDIRRMRKAIDVTQTELAKQSGVSQSTIAKIERGRISASYDTVVKLFETLDEMAK,-0.00924
19,HMHELKIEKVAEAPNGAMRLLLSDGSEWVLGVKSWNRLNLSLEKILDVNVLRALEKESQYHLLRTKALEL,0.171
20,HMTALSAREHEVLQLITRGYTADEIAAMLQISRHTALTYVRRIYSKLKVNSKAEAIFEVRQR,-0.215
21,HMSQDINVFIKTNPENATIIWDGESKGTNGIFKSNAGAHRLRIEMQGYESIDQDIQVSDKQFSFEYNLKKE,0.22
22,HMELVQIIGNNIRDLMTTRSVTITDLANYLNVSRQTLQNYLRGSNIIDSVKLVAVSDFFDVPVESLLQSK,-0.783
23,HMDKNLQYADTPKGKLREYIKNLPNGSTVNRQKLAEEFGIKKQSMGTVTEVFQEFPDKNFKFVNP,-0.157
24,HMRMLTKRRQDLLLELLEERGSITVSEVKDMLDASESTIRRDITALDEEGKLVKVFGGAVAAR,-0.465
25,HMRTYYEILGVSKNASLHEIQKAYRELALKYHPKNNSDPTAEEKFTQINEAYTHLSDAARRRSYDDL,0.362
26,HMIKSMTGYGSAKGTVEGIEVSVELKSVNNKFLDTSIRLPRSFLFAEETIKQAVSSHISRGKVDVFVSVDS,-0.0706

row,Sequence,soluble fraction (log2)
1,HMNSVSIAPEMLNWVIAHIQMNSLPKQIVEHLTAWISGQKEPTFNQIEKVSRATGIPLGYFFLEQPPKE,-1.02
2,HMENDGQFLRAEREKYGLTLTDIYEHTHIPIKKLKAYEMWEEEMPPRTRALLELYFDQVAFEYDS,-0.556
3,HMSAEVMLRRLIDENDPSSENARYILAVMLERKKILAPVDVKNEKKSKMLFYEHQKTGEAFIVRDP,-0.17
4,HMLLQENRKLHSKLEELQLISRAKAVLIEYLKLTEPQAHRYIEKQAMDLGLTRPQVALNILKTYE,0.21
5,HMRILGIDPGTRITGYGIIDIEGNRLRHVDNGIIKTRSSDALPLRLKVIYDGLTAVLKQYSPQAV,-0.629
6,HMNDRLFQILYLLLEKGTMTAPELSRALEVSVRTIYRDIDALSLAGVPVYATQGKNGGVSLLPNY,-0.758
7,HMQAKNGTVTGSVVNVRGGAGTQYAVKGKASRGTKVTILGQQSSWLNVRLDNGVTGWIHADYVQISE,-1.43
8,HMILNDRSELLDVVKRVIAANPASVADYRKGKKKVLGFLVGQAMKETKGQADPRILNELFLQELGEN,0.0701
9,HMNRGITVIVNNEEIKMKEKAQYVVVDIFDYIDFDLTVPKGSINITLNGENTPYTASIKDGDVIEVFW,-1.56
10,HMKSSISKNWNPSKDAIEILTRAGIDQEFLENLIPEFVIYWIERSDVLISYNSKFIEHARLKWAQHTAEIQ,-0.106
11,HMEDKFEYQGELKSLIEPTSFSELVSALNVRDTLQAIIDFAMREEDTSGYEELKVRQNDYIQEYLNSIGNF,-1.28
12,HMSDEAGKVLQLLRENGGYLPYNDRSDPEDIYAFFSMSKKTFKMTAGNLYKQKKIIFTNTGIKLTE,0.317
13,HMTISGSDLKAQREALNIPLERIAKETRIRLSILQDLEDEEYSELSSSAQTKGFLRLYADYLSSHKQRLG,0.0379
14,HMKLVTIPNVIGKTKEDAMKTLKDLGVTVTVETKESEKDDGTVIAQSKAEGTKLTAGENVTITVSKKKK,-0.487
15,HMKVTQDIIFKRNGEEIKSKVLEITPDLIIYIDYSRADNIAREINISEVNMIIYKNGTSEIFSRPEE,-1.15
16,HMRIVQTDYRNFLSQVESGAVRSVQIDETQIRYTALDSGGKEIVYNTGKVDDPGLVNRLYDAGVEFSQVIP,-1.23
17,HMQTTITITNTVTGQKAQFPPPFNPMSLSKIGVDETFEKEVFVDGVDTFGYGLDGYLTFYELKDFLRSYQ,-2
18,HMNPETIHNDYKAFIKFAFSGLSYYSKVWNQNREMITPGLLETLWQKYRHLSIGEIETILEKIIKEG,-1.24
19,HMVMNYKKIGKKIADRRILLGITQEELAEKVDSSANYISNIETGIKSGSLIFYIKVANELKLSLDFLFSDE,-0.363
20,HMIDAAHLEKAILSLPEGARAVFVLIETEGFAHREVAELLGISEGTSKSQLNYAKKRLREILV,-0.0621
21,HMNSSLLGKRIKSLREDHDLTQKELSLMIGLTPKMISFYENNQRTPPLDILLKLAKIFEVSVDYLIGYA,-0.0642
22,HMYLGRKATLLSSISGEKMGNAEVLADGNLMSIYVKSLTGEPLSYGSTVLIIKHSEDQNFYLVQN,-0.65
23,HMGEFVQLKNRTGSVIEAKILNYQNGKVKLQRKDGVIFVVPISIFDRMSSSIIENKAKEMDSF,0.255
24,HMKLIIVPNLVGQSRRSVEISLQQIGLRIDTVYTEFNPDYPKGTVAWQFPKSGDHIKKGMGLQITVSQG,0.22
25,HMSSEITYDKFIEMVEEGNVKEVTLQSDTLTIKPKHQDSAFSEKEYYTRQMESADQLTERLEGTGIEFHS,-0.642
26,HMDDAIAEKTGGAVSSVNQRQAILDHIREAYGIELESLRSTDIERYLDDPEIPEPVKDILRDRLRGAK,0.0292

row,Sequence,soluble fraction (log2)
1,HMLNIVTIFEEQFGRPLSPIELNIIKDWKESDYSDEMIVKALKEAVKSQVLNFRYVEGILNNWAKNG,-1.08
2,HMNRIKIYPTPGSKVLSIENINFSLIHDFKILDIFGREVKNFTVSSEKNTKMLVDTSKLSDGLYFIFFNTF,-0.61
3,HMGAFAIHTASELSAGMRIRHERFGPGVITGIDTANPASGARIQVDFDNGTSKTLLLSYAKFQI,0.22
4,HMDISAFDTEFIISKFGGIRPMAQKLGVPVSTVQGWKQRQTIPQNRMGDILEAAKNYNLELTP,0.114
5,HMYSQIGYGSSGSDVRKLQEILNGKGYNLSVDGQFGAKTKSAVRDYQSKNGLSVDGIVGVNTWGKLT,0.22
6,HMQSDQLSDREREILRLIGSGRTNQEISQELQVSGSTVRTHLQHILDKLGLENRNQAVLYAIRIGLAAPP,-0.372
7,HMRIASANAIYDELLNKRDDAKLAELKQEDINLYALYILQNGSADERAALENTQGIDVVLKEIINLQNG,-0.416
8,HMQMSPREKMIYSFIESHPGTKSGEIAEKLNVPLPTVKRILSEMVSGNFIAKHGSGIGTNYSTEK,≥ 0.43
9,HMKELVAGQTVRVHHSIGFGQTGTVTALNSLKTTLPNGLRTNTASILFQNNEKVVLPISNFDIIES,0.403
10,HMRPQYVDLFTKLSAEEAGAITSKLKELKVEYQLADNGSTIKVPQKDAAEIRLELANEGLPA,-0.283
11,HMSTILERLIMLQEQSGMNQKQLQKELGLSNSAFSDWKKGKGRPSVEALVRFSEFFGVSMDWLAFG,-0.845
12,HMILKQTHIVQELTGPIRLQEYGVGIFQQISTKSALKKALKKNQITVDGVVGSTATFIKGGEIIIYHVTE,-1.68
13,HMLADIGGRIADLRREVGLTQGELAEKADISVVHLSNIELGKKTPGLSTLIRIAEALDVATDWILQA,-1.13
14,HMAAPLTDRETEVLTLLARGLINKQIAEELHIGLTTVITHRRNIMEKLRVRSLAELILRAVAAGYVDAGR,-0.78
15,HMEPGEVQVDGLRFIAQPQERNDFEVALEQFRAGNFAAARKSFAAFINTYKQSGYLPSARFW,-0.152
16,HMRVNINVSENILDWVMKRVNPSVLSSKQGELLYAWKEGRKVPTYNQIEKMSKVTGIPLGYFFLEKPPVE,0.411
17,HMSSTAIQAMIRRLIDGEDPRKPLSDARLAETLKASGVPVARRTVAKYRESMSIPSSQDRLRI,0.0607
18,HMTRRVIRAPAAGIMRSNVKLGDLVKEGDVIAWIGEHEIKAPLTGMVRGLLNDGLAVVGGFKIGDI,0.157
19,HMVTIEEMMDRLLTRVQRAVNMSFSEFSGEAKEKVEVIVSFLALLELVKQGAVDVLQHENFSDIRIENT,-0.841
20,HMAEVPSLIGKSLDAAKQAIIDAGFKVGSVSYDNSDSYGKGQVMWQQYEPSTKVKKGSSISIKVSKGS,-0.121
21,HMYDASELNKALEEAKKLDLNNYTEESSEALKNAISKAEEALLSKDKETINSALEELNKAMDSL,-0.615
22,HMFKINNIIVSGLSEKSNLQTSEEIKNILFENIFFIKKDVLFKILEKNNLINSFEIKKIYPDTIEVKIKKT,-0.104
23,HMKEETEMVTIPDVTGKPLTEAANLLREAKLDYLAESTGTSVTKQMPLPGAEVMVNTTVLLYTG,0.241
24,HMAFDESLVRSIQELLSELGYSPGKIDGLLGAKTVAAIKAFELEINKDQLTGEPSEELLIALQLAIRSSKM,-0.968

# Source: the domain aggregation screens of Martell et al. (2025)
